Laboratory results reported in patent US20240294622A1 (SUZHOU TRANSCENTA THERAPEUTICS, published 2024).

T1: HGREM1-His (ACRO) (human, UniProt O60565 25-184)
T1 construct: Lys25-Asp184 of NP_037504 with C-terminal polyhistidine tag (ACRO GR1-H52H3); they are put here; also called hGREM1 (ACRO); human gremlin (ACRO)
T1 sequence: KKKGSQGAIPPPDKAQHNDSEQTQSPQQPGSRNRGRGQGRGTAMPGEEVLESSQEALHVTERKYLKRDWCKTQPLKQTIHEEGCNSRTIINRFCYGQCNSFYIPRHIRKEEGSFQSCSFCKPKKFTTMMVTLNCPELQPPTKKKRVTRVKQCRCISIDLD

T2: XM5-Fc (human (hGREM1 with residues 123-143 …))
T2 construct: also called gremlin 1-DAN fusion protein
T2 chain: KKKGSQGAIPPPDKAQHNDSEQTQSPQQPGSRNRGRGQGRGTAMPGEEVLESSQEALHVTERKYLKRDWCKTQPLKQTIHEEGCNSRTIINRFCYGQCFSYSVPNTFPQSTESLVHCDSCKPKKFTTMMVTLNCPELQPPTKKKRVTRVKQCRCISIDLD

T3: Mouse Gremlin-His (R&D) (mouse, UniProt O70326 25-184)
T3 construct: Lys25-Asp184 with 10xHis, R&D 956-GR; also called mouse gremlin (R&D); mGREM1
T3 sequence: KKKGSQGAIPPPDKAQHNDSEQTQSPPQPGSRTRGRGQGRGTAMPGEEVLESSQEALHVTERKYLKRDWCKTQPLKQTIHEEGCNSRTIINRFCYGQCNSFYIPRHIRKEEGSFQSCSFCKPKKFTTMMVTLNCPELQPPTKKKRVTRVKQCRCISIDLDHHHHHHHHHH

T4: hGREM1 (source and construct not stated) (human, UniProt O60565 25-184)
T4 construct: also called Gremlin; gremlin
T4 sequence: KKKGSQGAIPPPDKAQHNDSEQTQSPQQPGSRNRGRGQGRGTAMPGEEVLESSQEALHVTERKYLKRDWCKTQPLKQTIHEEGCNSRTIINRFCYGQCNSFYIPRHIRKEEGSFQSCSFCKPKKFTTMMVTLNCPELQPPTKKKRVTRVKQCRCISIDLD

B1: 67G11 (antibody, V domains shown)
VH: QVQLQQSGAELARPGASVKLSCKASGYTFTSYGIGWVKQRTGQGLEWIGEIYPRSGNTYNNEKFKGKATLTADKSSRTVYMELRSLISEDSAVYFCAREGYSNNYYAMDYWGQGTSVTVFS
VL: DVLMTQTPLSLPVSLGDQASISCRSSQSLVHSNGNTYLEWYLQKPGQSPKLLIYKVSNRFSGVPDRLSGSGSGTDFTLKISRVEAEDLGVYYCFQGSHVPFTFGSGTKLEIK
notes: mouse hybridoma antibody; also called hybridoma 67G11
B2: 56C11-C (chimeric antibody of 56C11) (antibody, human IgG1, V domains shown)
VH: EVQLQQSGPELVKPGASVKISCKASGYTFTDFYMNWVKQSHGKSLEWIGDINPNNGGTSYNQKFKGKATLTVDKSSSTAYMELRSLTSEDSAVYYCARDPIYYDYDEVAYWGQGTLVTVSA
VL: DVVMTQTPLSLPVSLGDQASISCRSSQSLVHSNGNTYLHWYLQKPGQSPKLLIYKVSNRFSGVPDRFSGSGSGTDFTLKISRVEAEDLGVYFCSQSTHVPLTFGAGTKLELK
notes: also called 56C11-chi
B3: 42B9 (antibody, V domains shown)
VH: QVQLQQSGAELARPGASVKLSCKASGYTFTSYGIGWVKQRTGQGLEWIGEIYPRSGNTYNNEKFKGKATLTADKSSRTVYMELRSLISEDSAVYFCAREGYSNNYYAMDYWGQGTSVTVFS
VL: DVLMTQTPLSLPVSLGDQASISCISSQSLVHSNGNTYLEWYLQKPGLSPKLLIYKVSNRFSGVPDRLSGSGSGTDFTLRISRVEAEDLGVYYCFQGSHVPFTFGSGTKLEIK
notes: mouse hybridoma antibody; also called hybridoma 42B9
B4: 69H5-C (chimeric antibody 69H5) (antibody, human IgG1, V domains shown)
VH: EVQLQQSGAELVRPGASVKLSCTASGFNIKDDYMHWVKRRPEQGLEWIGWIDPENGDTEYASKFQGKATITADTSSNTAYLQLSSLTSEDTAVYYCTTWATVPDFDYWGQGTTLTVSS
VL: DIVMTQSPSSLAMSVGQKVTMSCKSSQSLLNRSNQKNYLAWYQQKPGQSPKLLVHFTSTRESGVPDRFIGSGSGTDFTLTISNLQAEDLADYFCQQHYSTPFTFGSGTKLEIK
notes: also called 69H5-chi
B5: 69H5 (antibody, V domains shown)
VH: EVQLQQSGAELVRPGASVKLSCTASGFNIKDDYMHWVKRRPEQGLEWIGWIDPENGDTEYASKFQGKATITADTSSNTAYLQLSSLTSEDTAVYYCTTWATVPDFDYWGQGTTLTVSS
VL: DIVMTQSPSSLAMSVGQKVTMSCKSSQSLLNRSNQKNYLAWYQQKPGQSPKLLVHFTSTRESGVPDRFIGSGSGTDFTLTISNLQAEDLADYFCQQHYSTPFTFGSGTKLEIK
notes: mouse hybridoma antibody; also called hybridoma 69H5

Tests used:
HGREM1-His (ACRO) [1] = target: T1, HGREM1-His (ACRO); assay: blocking ELISA, Human Gremlin-1 binding to BMP4; column OD450
Experimental: (§1) In addition, the ability of serial dilutions of antibodies provided herein to block Gremlin binding to human BMP2/4/7 was also examined via ELISA. Plates were coated with recombinant human BMP2/4/7 (0.5 μg/ml) overnight and then serial dilutions of antibodies were incubated with 1 μg/ml of human Gremlin-his modified for 1 h at RT before this complex was added to coated plates and allowed to incubate for an additional hour at RT. The plates were then washed and added with anti-his HRP (GenScript). Plates were then developed with a TMB solution and stopped by adding stop solution. The plates were read on a plate reader at 450 nm. […] The chimeric anti-gremlin 1 antibodies (69H5-chi) and chimeric anti-gremlin 1 antibodies (22F1-chi) also can inhibit the binding of gremlin to BMP2 and BMP4 (see, FIG. 3E and FIG. 3F). The chimeric anti-gremlin 1 antibodies (56C11-chi) can inhibit the binding of gremlin to BMP2 (see, FIG. 3E).

HGREM1-His (ACRO) [2] = target: T1, HGREM1-His (ACRO); assay: blocking ELISA, Human Gremlin-1 binding to BMP7; column Percentage
Experimental: as §1

HGREM1-His (ACRO) [3] = target: T1, HGREM1-His (ACRO); assay: blocking ELISA, Human Gremlin-1 binding to FGFR1
Experimental: (§2) Next, 0.25 μg/ml of gremlin was selected to test the blocking activity. The ability of antibodies to block Gremlin binding to human FGFR1-Fc was examined via ELISA. Plates were coated with recombinant FGFR1-Fc (2 μg/ml) overnight and then serial dilutions of antibodies were incubated with 0.25 μg/ml of human Gremlin-his modified for 1 h at RT before this complex was added to coated plates and allowed to incubate for an additional hour at RT. The plates were then washed and added with anti-his HRP (GenScript). Plates were then developed with a TMB solution and stopped by adding stop solution. The plates were read on a plate reader at 450 nm. […] Humanized anti-GREM1 antibodies provided herein (e.g., Hu14E3, Hu22F1) are expected to show the similar technical effect as their chimeric counterparts in blocking the binding of hGREM1 to FGFR1.

HGREM1-His (ACRO) [4] = target: T1, HGREM1-His (ACRO); assay: blocking ELISA, Human Gremlin-1 binding to BMP2; column OD450
Experimental: as §1

HGREM1-His (ACRO) [5] = target: T1, HGREM1-His (ACRO); assay: blocking ELISA, Human Gremlin-1 binding to BMP2; column Percentage
Experimental: as §1

HGREM1-His (ACRO) [6] = target: T1, HGREM1-His (ACRO); assay: ELISA, coated hGREM1 (ACRO)
Experimental: (§3) Clear polystyrene plates (BEAVER) were coated with 100 μl/well of a […] hGREM1 (ACRO) and mouse gremlin (R&D) in high pH coating buffer overnight at 4° C. Then the plates were washed once on an automatic plate washer using PBS+0.1% Tween 20 (Sigma). 100 μl of block solution consisting of PBS+1% BSA+1% normal goat serum+0.5% Tween 20 (Sigma) was added to each well and incubated at room temperature for 2 hours. Then 100 μl of antibodies in antibody dilution buffer containing PBS+1% BSA+1% normal goat serum+0.01% Tween 20 starting from 2 μg/ml and then serial dilutions were added to each well of the plate and incubated for 1 hours at room temperature. Afterward the plates were washed three times with 200 μl of PBS+0.1% Tween20 followed by adding 100 μl/well 1:10000 Goat anti mouse IgG-HRP (abcam), and incubate for 1 hour at room temperature. They were then washed 3× with PBS+0.1% Tween20. Finally, 100 µl/well of TMB (Pierce) was added to each well and after several minutes add 50 μl of stop solution to each well. The plates were read on a Multiscan FC microplate reader (Thermo Scientific) at […].

XM5-Fc = target: T2, XM5-Fc; assay: ELISA on coated XM5-Fc (column XM5)
Experimental: (§4) Binding affinities to hGREM1 and XM5 were also compared. Briefly, XM5-Fc or Gremlin-his […] was coated. 100 μl of block solution consisting of PBS+1% BSA+1% normal goat serum+0.5% Tween 20 (Sigma) was added to each well and incubated at room temperature for 2 hours. 4-fold serial antibody dilution from 2 μg/ml were added. Afterward the plates were washed three times with 200 ul of PBS+0.1% Tween20 followed by adding 100 μl/well 1:10000 Goat anti mouse IgG-HRP (abeam), and incubate for 1 hour at room temperature. They were then washed 3× with PBS+0.1% Tween20. Finally, 100 μl/well of TMB (InnoReagents) was added to each well and after 2 minutes add 50 ul of stop solution to each well. The plates were read on a Multiscan FC microplate reader (Thermo Scientific) at […]. The EC50 values were show in table below.

HGREM1-His (ACRO) [7] = target: T1, HGREM1-His (ACRO); assay: blocking ELISA, Human Gremlin-1 binding to BMP4; column Percentage
Experimental: as §1

HGREM1-His (ACRO) [8] = target: T1, HGREM1-His (ACRO); assay: ELISA on coated Gremlin-his (column Gremlin)
Experimental: as §4

HGREM1-His (ACRO) [9] = target: T1, HGREM1-His (ACRO); assay: blocking ELISA, Human Gremlin-1 binding to BMP7; column OD450
Experimental: as §1

HGREM1-His (ACRO) [10] = target: T1, HGREM1-His (ACRO); assay: competition ELISA, Gremlin-his binding to coated BMP7
Mouse Gremlin-His (R&D) [11] = target: T3, Mouse Gremlin-His (R&D); assay: ELISA, coated mouse gremlin (R&D)
Experimental: as §3

[12] = target: T4, hGREM1 (source and construct not stated); assay: ELISA on hGREM1
HGREM1-His (ACRO) [13] = target: T1, HGREM1-His (ACRO); assay: blocking ELISA: coated BMP4, chimeric antibody pre-incubated with gremlin, lower panel; blocked ligand BMP4
Experimental: as §1

HGREM1-His (ACRO) [14] = target: T1, HGREM1-His (ACRO); assay: competition ELISA, Gremlin-his 0.25 ug/ml binding to coated FGFR1-Fc; partial blocking
Experimental: as §2

Mouse Gremlin-His (R&D) [15] = target: T3, Mouse Gremlin-His (R&D); assay: ELISA on coated Mouse Gremlin-his, anti-mouse IgG-HRP
Experimental: as §3

| Binder | IC50 (HGREM1-His (ACRO) [1]) [µg/mL] | IC50 (HGREM1-His (ACRO) [2]) [µg/mL] | IC50 (HGREM1-His (ACRO) [3]) [µg/mL] | IC50 (HGREM1-His (ACRO) [4]) [µg/mL] | IC50 (HGREM1-His (ACRO) [5]) [µg/mL] | EC50 (HGREM1-His (ACRO) [6]) [ng/mL] | EC50 (XM5-Fc) [ng/mL] | IC50 (HGREM1-His (ACRO) [7]) [µg/mL] | EC50 (HGREM1-His (ACRO) [8]) [µg/mL] | IC50 (HGREM1-His (ACRO) [9]) [µg/mL] | maximal blocking percentage (HGREM1-His (ACRO) [10]) [%] | EC50 (Mouse Gremlin-His (R&D) [11]) [ng/mL] | EC50 [12] [ng/mL] | IC50 (read off the curve) (HGREM1-His (ACRO) [13]) [nM] | IC50 (HGREM1-His (ACRO) [14]) [nM] | binding result (Mouse Gremlin-His (R&D) [15]) |
| --- | --- | --- | --- | --- | --- | --- | --- | --- | --- | --- | --- | --- | --- | --- | --- | --- |
| B1 | 0.367 | 0.848 | 2.41 | 0.547 | 0.548 | 7.84 | 6.65 | 0.367 | 0.0126 | 0.848 | ≥ 50 | 7.71 | – | – | – | – |
| B2 | – | – | – | – | – | – | – | – | – | – | – | – | 4.89 | – | – | – |
| B3 | 0.397 | 0.928 | 2.79 | 0.752 | 0.752 | 8.06 | 7.12 | 0.396 | 0.0134 | 0.916 | ≥ 50 | 8.51 | – | – | – | – |
| B4 | – | – | – | – | – | – | – | – | – | – | – | – | – | ~6 | 7.14 | – |
| B5 | – | – | – | – | – | 106 | – | – | – | – | – | – | – | – | – | no binding |
